From patent US11639503B2, “Anti-chymase aptamer and use for same” (RIBOMIC INC., priority 2017, dated 2023) come the findings set out here.

Data set [1] has as its target T1, chymase (recombinant, manufactured by SIGMA) (Homo sapiens, UniProt P23946).
T1 construct: purchased SIGMA
T1 sequence (P23946 22-247): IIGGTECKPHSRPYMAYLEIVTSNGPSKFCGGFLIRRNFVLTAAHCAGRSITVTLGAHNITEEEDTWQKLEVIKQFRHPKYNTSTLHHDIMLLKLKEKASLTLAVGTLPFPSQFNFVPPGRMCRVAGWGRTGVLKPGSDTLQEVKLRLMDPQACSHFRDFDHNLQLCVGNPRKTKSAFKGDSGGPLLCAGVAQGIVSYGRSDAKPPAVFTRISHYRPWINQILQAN
As to the kind of experiment: chymase enzyme activity inhibition, synthetic substrate Suc-Ala-Ala-Pro-Phe-MCA. The class given is biochemical. The settings on record: Table 1; substrate Suc-Ala-Ala-Pro-Phe-MCA 100 μM, chymase 0.05 μg (16.7 nM), 37° C.; mean of 2 or 3 measurements. As to the method:
A first method employs a synthetic substrate. A useful chymase substrate is Suc-Ala-Ala-Pro-Phe-MCA (4-methylcoumaryl-7-amide group) (manufactured by Peptide Institute, Inc.), which contains the 4-amino acid peptide “Ala-Ala-Pro-Phe” (SEQ ID NO: 41), a standard substrate for chymotrypsin-like proteases.
The assay is performed using a 96-well plate (F16 Black Maxisorp Fluoronunc, manufactured by Nunc), with a reaction mixture volume of 100 μL, in a buffer solution (solution C; see Example 2 below). First, each nucleic acid is prepared in solution C to obtain 50 μL solutions. After 10 μL of the 1 mM substrate prepared in solution C is added, the plate is set to the microplate reader SpectraMax190 (manufactured by Molecular Devices Corporation), and incubated at 37° C. for 5 minutes. Separately, 0.05 μg of chymase (recombinant, manufactured by SIGMA) is diluted in solution C, and 40 μL of this dilution is incubated at 37° C. for 5 minutes. The chymase solution is added to the mixture of the nucleic acid and substrate to initiate an enzyme reaction. The plate containing the reaction mixture is set to the microplate reader SpectraMax190 (manufactured by Molecular Devices Corporation), and examined for time-dependent changes in the fluorescence intensity at 37° C. for 5 minutes (excitation wavelength 380 nm, detection wavelength 460 nm). A linear approximation of the increase in the fluorescence of the AMC (7-amino-4-methylcoumarine) released from the substrate by chymase activity is generated, and its slope is taken as the initial reaction velocity. For control, samples are treated and analyzed in the same manner in two cases: use of a nucleic acid pool containing a random sequence of 30 or 40 nucleotides (negative control), and use of chymostatin, a known chymotrypsin-like serine protease inhibitor (positive control). Taking the initial reaction velocity without the nucleic acid and inhibitor as a 100% enzyme activity, the inhibitory rate for each test substance is calculated, and the inhibitor concentration required to cause a 50% inhibition of the enzyme activity (IC50) is determined.
Whether the nucleic acids shown by SEQ ID NO: 1-8 inhibit the enzyme activity of chymase was determined as described below. The chymase substrate used was Suc-Ala-Ala-Pro-Phe-MCA (manufactured by Peptide Institute, Inc.), which contains the 4-amino-acid peptide Ala-Ala-Pro-Phe, a standard substrate for chymotrypsin-like proteases. Here, Suc is a protecting succinyl group, and MCA is a 4-methylcoumaryl-7-amide group; upon cleavage of the C-terminal side of phenylalanine, AMC (7-amino-4-methylcoumarine) is released. By detecting the fluorescence of this AMC, the enzyme activity of chymase can be determined. The assay was performed using a 96-well plate (F16 Black Maxisorp Fluoronunc, manufactured by Nunc), with a reaction mixture volume of 100 μL, in solution C as a buffer solution. Here, the solution C is a mixed solution of 145 mM sodium chloride, 5.4 mM potassium chloride, 1.8 mM calcium chloride, 0.8 mM magnesium chloride, 20 mM Tris (pH 7.6), and 0.05% Tween20. First, nucleic acid was serially diluted in solution C to obtain 50 μL solutions. After 10 μL of the 1 mM substrate prepared in solution C was added thereto, the plate was set to the microplate reader SpectraMax190 (manufactured by Molecular Devices Corporation), and incubated at 37° C. for 5 minutes. […] The chymase solution was added to the mixture of the nucleic acid and substrate to initiate an enzyme reaction. The final chymase concentration in the reaction mixture was 16.7 nM, the final substrate concentration being 100 μM. The plate containing the reaction mixture was set to the microplate reader SpectraMax190 (manufactured by Molecular Devices Corporation), and examined for time-dependent changes in the fluorescence intensity at 37° C. for 5 minutes (or 30 minutes) (excitation wavelength 380 nm, detection wavelength 460 nm). […]

Data set [2] deals with T2, chymase purified from human skin mast cell (native, Calbiochem) (Homo sapiens, UniProt P23946).
T2 construct: Here, the native is chymase purified from human skin mast cell; purchased Calbiochem; host or cells: human skin mast cell (tissue-derived)
T2 sequence (P23946 22-247): T1 sequence (P23946 22-247)
As to the kind of experiment: chymase enzyme activity inhibition, native substrate angiotensin I (His-Leu fluorescence). The class given is biochemical. The settings on record: angiotensin I as substrate, mean of 2 or 3 measurements. The gist of the method: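 Native chymase (final 0.5 nM) was preincubated with serially diluted nucleic acid (0.0027–2 μM solutions) for 5 min at 37 °C, then reacted with angiotensin I (final 50 μM) in solution C for 90 min at 37 °C and stopped with TCA. Released His-Leu was derivatized with o-phthalaldehyde and read by fluorescence (ex 355/em 460 nm). IC50 calculated relative to a no-inhibitor reaction.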

Oligonucleotides are written 5' to 3', each unit as a sugar letter and its base; * is a phosphorothioate linkage, no mark a phosphodiester; rarer units and linkages stand in square brackets, end groups in braces. Plain capitals give the bases only. r = 2'-OH (RNA); f = 2'-fluoro

B1: 2 (nucleic acid)
chain: rGrGrGrArGfCrArGrGrArGrArGrArGrGfUfCrArGrAfUrGrAfUfCrGrGrAfCrAfUrArAfCrAfUfUrGfUfUrGrGrGrGfUrGfUfCrArArGrGfCfCfUrAfUrGfCrGfUrGfCfUrArGfUrGfUrGrA
modifications: aptamer
Usually IC50 stands for the midpoint of a concentration-inhibition curve. Turning to B1, the IC50 in data set [1] is 31 nM; in data set [2] (Table 3, >1 = no inhibitory activity up to 1 μM), 10 nM; in data set [2] (Table 4), 10 nM; in data set [2] (Table 6) it was 10 nM.
